Reference: PMC9331050

Legend:
[1] = biological target: CreFH1, frataxin homolog from Chlamydomonas reinhardtii, mature form without the mitochondrial transit peptide (Chlamydomonas reinhardtii); assay: native MS; ESI-TOF MS of recombinant CreFH1 after 3 h with Cu2+, Fe3+, Zn2+ or water; carrier 5:95 acetonitrile:ammonium acetate/ammonia 15 mM, pH 7.0; monomer to dimer
[2] = biological target: CreFH1, frataxin homolog from Chlamydomonas reinhardtii, mature form without the mitochondrial transit peptide (Chlamydomonas reinhardtii); assay: native gel or EMSA; 8% native PAGE of purified CreFH1 incubated 1 or 3 h with water (control) or 33 uM Fe3+, Cu2+ or Zn2+; 3 ug protein a lane; Coomassie stain, densitometry; monomer to dimer

## CreFH1, frataxin homolog from Chlamydomonas reinhardtii, mature form without the mitochondrial transit peptide (natural protein)
[1]
  stoichiometry N: 2
[2]
  percent of protein as dimer, with Zn2+ or Fe3+: 22%
  percent of total protein as dimer, with Cu2+: 40%
  stoichiometry N: 2
